A short description of this data set: soluble on expression in E. coli; label from the status in PepcDB or PDB records.
As for “GPGSMQKQHAPGRGLVLHSHKVKGQQQERNDSLVQCAQHPPLQKRVNPHPHSHSSKPIPNIFVVITGLVVNPRTGSFHDFRSPCFPPPRGGGKGRNAWGNRNGEKVEAALAALQIGIFGDQHHIAGKEACQVDKKPSCSFFLTWPHILPTRFQRKKKRKNY”, the “soluble on expression in E. coli” value is on record as “not soluble”.
With “GPGSMQQPTAQEEQYVNVPVPLTGEEKGWQEVAPNRYIRYEQFGGSDAEMNFIVNLFTAELTEPYSSFTYQYFVFGWPDLCITAFGVESETKPDNSVVGEKVGAVVSRVTRKGAGMPLRGYVAMFAVVPKFRGYRLGSRLVSLTVELMRAKGCDEVYLETPTSNVRALGLYLNLGFAKTKYLPRYYLDHSDAVRLKLWLKDAIPKSVPETASTAGVEKA” the entry was “soluble”; with “GPGSMQSNAPFDPEREALRNEAIKKTVERNVTQARLKKVNDDVKLQQRELDKVEDQVNALLSIGHYVGEVLKRVDEERFIVKSISGARHLVGYRKSIKPEKLKFGARVALEITTFTIVKVLPREVDPQVYSMQYMSSDKDVSFQDIGGLQPQMRQMREVIELPLTNPELFVRVGIAPPKGVLLYGPPGTGKTLLAKAIAANVDAAFLKIVASSIVDKYIGESARVIREMFAYAREHEPCIIFIDEVDAIGSKRIEGSSSDREIQRTLMELLNQMDGFDKLGKVKVIMATNRPDTLDAALMRPGRLDRKIEIPLPNEAGRLDVLRIHSAKITKKGDIDFESVVKLSEGFNGADLRNVCTEAGMFAIRAGRDYVENSDFNKAVRKVADMKRLEGTAHQYSDQ”, “not soluble”.
For the sequence “GPGSMRARSLLRQQASAATLQPLRSVVAIGLRQEFDPHWPLPLPPPLPMNKQKHTLVLDIDETLIHTYAMGLHDDSKDHTRDPALQGVSLIDYNVLLRPHLKEFLEEVNQLFEVVFWTAGTASYCCAVLDALEQQVMQLPRSFYSYVELAKESRKMKSSTSHTNFYALSRTQTLEQQGYMKYLPMLGRKMSSVVMLDDNVRSFPLTPRNGIRIDAFDPDDHVLQRYIFALRRVQKEKPHEMEAALVQCLQQGQQE”, the “soluble on expression in E. coli” value is recorded as “not soluble”.
As to “GPGSMRFRRVLAPLAASPHRWKTQRSPRGEETMGEGGAIEPDTSEAWVRNYVARAVREGRQTKESAEYFESIMNDQVEFRQYIQEARRLLNNQDPRTLTKYQRGHFAERLSRQMSGVAAERLMRAHAEESNARRHTQDGTPTGENYWFEAGNTLASPSVPGFVKDEVMREMREDRKKTSAAFEESEELQAMADKDEAFAEHLRRQRQHLFRSNDDVN”, the “soluble on expression in E. coli” value is “not soluble”.
Take “GPGSMRKFCHFMANCWNSARSHATYGAVPLTHSQVTSVYATDGGKVDELGLLELVEERIFSWKLNKWEMRIPPNLPNDQKELIRQEQENLKQILSGWRKCFGALNADILQISSLTGVPKEVVREKNRTWLQEEVAKLRWMGEVNKAALLRDAFMRLEAFGSRDFMFMERLCCIYGLARQGTFDEAFTNYITEDPVTNDIFVDERNPFKELVAHIVRNYSQIDIIYDFLGFNYSEGYRSSLRRYMEYLQCKTAENVRASGRLVTGDKGEHNILFDYCVSRESLVSGDSCQGIIDFLYINGNDVTLIIIASDNPWLRNRQLPHRRQMEGIARRVCFVLGIPPSEVRIRNLLLPPTYLDKGSIVRLNDIVFRLSNEQSNLLIPWLTNYNKELDPKDVDYTALAKTTNEEEWLTL”: the “soluble on expression in E. coli” value was “not soluble”.
For the sequence “GPGSMRYFVVAHEFQAEEDVELSVFKGEILCATEGVAQDGWIKVEATTDARRRGFVPMSYLREISAAEASTSMSAPASSAPPLTGESTSPMRTPQRAGGESSARAALANTTVSTSLDLGNCSGVVAKGFSPSLQPMRSPETTAVHAAPASSSIHLTPAQQAAGPVSRHLLENPNAVVDAFMKNEVYFNQLMQRRASALAQMQSGLEEAMTEVAACKDRSAVLTRKLHDLDGVVERERQRWMDRVEEEKVHVSRSIPYSAPLAVPVSSGTTPLRSPIIGPHSGVGRSVLDDDSPRQLRA”, the “soluble on expression in E. coli” value was “soluble”.
Regarding “GPGSMSHNVRPSRYAVSQSKARIFVGQLEPYVTEQDLYPVFSCYGKILHLNIVRHSTTVTPNEERRIPTAFVWYETTTEADAAIAALHNVFTFSSPDEEENKVRYIQVSYADKSPECTPWGRWQKTQAEIMRRTNPSGTGTGSNMPGQYSHITGGGPSTYSSSALNNDGGFTVSATGPAIRSSQSSGDISSMRYPRNPARGLRSMAPHIDHPEVQYYSSYDNLYNLGNRNQLYSMGGAANSMMGYTKHRGMPPHESTSSGDLGRGSTSSFWNMSEEVKKNTAANPNRFRHTARYTAPEPDEDLIMAAPTFTVTSGP”, the “soluble on expression in E. coli” value is “not soluble”.
For the sequence “GPGSMSKQKKEVVINLDEVDEQTGYKSAELFVWLKFDETYLQKPEDDREADVDAWVDAFCEQMEEEGMNYDRNFVRSVCVLGIYAGARDEFQQRMGSGKAVYPNGDRYDGEFFEGKKHGTGRYCFVSRGKSECDRIVEKEMQKLGGAVPDEQFITNVAEKYKISRQIVSWIIEYGVYPCYHGDYVRGVRTGQGLMKNKDGTVYKGDFLANKRHGQGMFYYLNGDIFSGTWRNGLKHGYGTYHFAGGSEYRGSWVDGVFTQGQWIFPDGTYYEGLFNKKNRPCDDAASMHFPSIKMAQTGVFRRGVWAPSSALQVCEETPVDGMSWID”, the “soluble on expression in E. coli” value is “soluble”.
Turning to “GPGSMSLVESQKDMADLLPCNEECGGDYGRYSFGQTDTEVIVKVPLPSDTPTKMINVDVKVSSLTIGMKGQSPLISGDLYKPVKVDECTWCVEDKSVLVVTLVKTNAQYEEWWPCVTTNERQIDMKTFRPPSKHISELDDSARATIAKMMFDQRQKALNLPSSDELRLRELMQRGGTSN”, the “soluble on expression in E. coli” value is given as “soluble”.
As to “GPGSMSMQQDFVHPRQLDDMRAIHAAINSFSGVMTKMMMLMKELGTTLEQVSHSFDALTSLTFTKDEVKQYVHKFGEEIISMKEGIAFCEYNKLVHEDVLHPVEQLKKSLKEAEQAAKAEKSAFEKYKKAKQRVDKQEKAFAEKSKPLDTSKSYPTHVQARNNALVSLQNCKSEFEERFVMLMNDVESVTSTALRRYLELNAGYMTSVVDALTKTDPTVGEAAVFYRQEKQAHRQSAVEQCCLQVNSDLSTAHASQGYRFDPSRMNGCLHDTIIFKRLPSRLRHSTGSRTRSLRVNRPAVE”, the “soluble on expression in E. coli” value is recorded as “soluble”.
“GPGSMSNEEVFRISNVSGYSVEIPLATAKELLGMLNMDQVFRAARAGTDDTDESGVDDGDTEPVKAEGMDYGKEVLDVVRAYALLPPDKRTSSIPRPLTQDLRSVVYAGEMELVEKAEREDYLVDLLNCALFLRFSQLSALCAAYMAVRIDEIAKAAPDIMEGAERIRKFLHMQNEWTEEEMGHLRREMEYAKSVDPNVY”: the “soluble on expression in E. coli” value was “soluble”.
With “GPGSMSRQQQAQELQKQWETDPRWKGIKRAFTAEDVVRLRGSIQQEHTLAKRGAEKLWTLINNEPFVNALGALTGNQAMQQVKAGLKAIYLSGWQVAGDANVAGEMYPDQSLYPANSVPLVVKRINNTLTRADQIQWSEGKNPGDEGYVDFFAPIVADAEAGFGGVLNAFELMKAMIEAGASGVHFEDQLASVKKCGHMGGKVLVPTREAVAKLTAARLAADVMGTPTVLVARTDAEAADLITSDIDDNDKPYLTGERTVEGFFRTKPGLEQAISRGLAYAPYADLIWCETGKPDLEYAKKFAEAIHKQFPGKLLSYNCSPSFNWKKNLDDATIAKFQKELGAMGYKFQFITLAGFHALNYSMFNLAHGYARTQMSAFVELQQAEFAAADKGFTAVKHQREVGTGYFDAVTQTVEREASTTALHGSTEDEQFFDGQKVA” the entry was “soluble”.
For the sequence “GPGSMSSKEELAALMASDGDFEKKISLLKKAVVTVTKQKKEVEARQTQLQGELSTATQQLAEAQRANAALQRKVKSLEAQQEQERSSGSAFGQNMLKGLSSIMGNSDSANRGGARGERGSAGDRLSLSPEDVERLISENEQLHRQIYAFKTKLEDVQHSSAKDTERLKSEVARLQRETQELRRSLEANTATGDRLRADYLTERALGDFCRHFFVATLLRPQQERESFLTGTTVEVRWPAKGPSSNSAAAAFSDSLPAVVSERVTLALQSAAGTVKTLLRGVSVLAVVLQEQLPSRERATVGDLECLRDRLSVFLEAHTAKKDSLMYLLEQLDSQLSAVQHADEEGGSAPVSADAFVEAQGNIVQLVLEWVGLLRTQLPLLVESCVAILPHGNSYTMYTAHVSAGTGDGAAEPRKTTTERGEFVEEVTRHGYATLASIEGSLTAMRMLVERSPTAYYRCYNNGNRGGALPEPPTTKETLNFTSSLEATQPPMDLSSLLALQQFWWEGCTSVRSLRASILALNSGLVNVAEACNKSEIRDALNYLCKCLEAIAAASEEMYGSPRLAPADADAAIAALVPDALAPRTPAHAPPSEASSWALRPRTAIATSSTLTAEGVRDTAYADKYEELLVALSAADRAAASYYTQMNYLYVEMAEKEDALQTALEAVAHLQQLIVAERAEAKHTRQALQSQISLLSTQLVEMAGAPAAQTPQ”, the “soluble on expression in E. coli” value is reported as “not soluble”.
In the case of “GPGSMSSLQKINDIEAELARTQKNKATMAHICALKARLAQLKRELIASESKKGGGKGEGFDVQKTGDARIGFIGFPSVGKSTLLSKMTSTHSEVAAYEFTTLTCVPGVVNYRGAKLQMLDLPGIIEGAKDGKGRGRQVIAVARTCSLILIVLDIAKPLQHKLIIERELDGFGIRLNKSPPDIVIRKKDRGGISISSTCPLTHIDQETIKIILGEYRMANADVTFRGDYTADEFIDAIEGNRAYIPAIYVLNKIDQISIEELDIVARIPHNCPISAHHEWNLDGLLECIWDHLNFIRVYTKPKGQVPDYDAPVILKKSPQPSVESFCNRIHRQLIRNYKYAWVWGSSVKHQPQRVGKDHSLDDEDVVQVVKKV”, the “soluble on expression in E. coli” value was “not soluble”.
With “GPGSMSSSGPLAPPISWAQRPEYVLITIPLQDTTGVSVEIKDEGRELHFACSSPEHKQYACTIHFYGVISSEESQHVVRPRQIELKLRKKFSKSLEDANDDEVEWPRLTKEKSKYPNITIDWSKWKDENDDECAADDLGNFGLSGGDAMDGQYSEMLSQLMQAQGQKDAEESADLPPGTIPGFGSARGQEATHGASAETGDDDGDMPPLEEDT”, the “soluble on expression in E. coli” value is given as “soluble”.
On to “GPGSMSTQLISGGEDGSHSQLMDLVLTNCSRPQSRASDNKQSTDGVVRLTSYVDLPNRDTLLPPIAEPKGGVPETSETLFPRRLGFDMIGVSSVSEEMLRDLYEVFDVHQSGGVERGVLREMMRSGFSHFGAPCSDRDLDRFFENVTPFRVRRRRTPKEGEVDVVPFNEFCVAFLSWLRR”, for which the “soluble on expression in E. coli” value was “soluble”.
In the case of “GPGSMTEYKKLCAILAQLREEVTSLSCAFEGGEGQDTVALHSLSTSIQKLVTNAQPRLLKILRKATETDPNRQIYNEAMCAAIKQLFDDFCELLSCLFGVPMEEMVLSEGKINFEDSPSISWTEDVHNNYLLHLAQTEAWKKRIATNIADLVLFEEETRTVYFAEERKARETLLQIKRNEKTNILHMLKEREAAKWEAEVRRRNDEHKGLMNASSFYGVQNIATVLLRIPEPFRKLLAGNMAQLVRALRTTPEDPNIRRIRCNNRRVMMDYSHVVFCGECETCRILVAAAEILWYIMGYRVEYSTAPTSSLRTVIENNPPILLPCGRYASEHAIAVIGFEEYSERFFTLHEPDPMQDSDEWMVWYATLEALLARLEDCLV”, the “soluble on expression in E. coli” value is reported as “not soluble”.
Take “GPGSMTYCPITRKELERYLPNFDPLLDPQIGEWVLVTPERRFAILGPLLQFVQEHAIKPIYPFLDNSEPSSAPVTTFNFCKEDSPKTLGDPSKVFPTLSEVWRRYRRRRFHISGMDEDGIGEEEENDDTILYLNPRALLLTPCAPAVFGGSDFIEGLDREGERVVFVNWKTGETRTDSGVLKPAPIPAWAEDVAEKAAMEWESWKKCVIPPSSTRE”: the “soluble on expression in E. coli” value was “soluble”.
Turning to “GPGSMVLIECKRLPKDEYSKDYDVFLVSIPGVTNIGEATDVLQQMRNTRVRIKWMMAAAKQLAKDFCSEEQQHHLLGPVADAERYMSLERAERRLTCTQKELDDLVDAFKGGAMILFPAECSGTDAVKRLAQLLDDDNTTDTERSKAHRLLSIIDDGATTEDILQGVATMWWSGKQLDRAADFTKYVGKNEKTKITVKLTAKDAPAPPREPALDAKAQSELMAYYFRKQEEMKKMIEDEDLSYGNSAWANPQGLKSQLHGFDSVKFKPG”, the “soluble on expression in E. coli” value is given as “soluble”.

For the origin of these results see the DeepSol protein solubility set.
